Results taken from paper PMC4660199 (Nature Communications, 2015).
Each block holds one binder with its values, some of them ahead of it. Where no end group is shown, it is not given here.

Experiments:
Conditions in all cases: both partners purified
[1] = molecular target: T1, cpSRP43 CD2CD3 (UniProt O22265 264-373, 15N,13C labelled where it is the observed partner in NMR); assay: crystal structure; His6–Trx–CD2CD3–(GS)3–A3CT IV on one chain, 2.8 Å, two molecules in the asymmetric unit; 20% PEG 3350, 0.2 M Ca(OAc)2, 18 °C
T1 construct: cpSRP43 chromodomains 2 and 3, residues 264-373; His6-Trx is joined through a cleavable TEV site; In the crystal structure the same range stands inside the fusion m15; also called cpSRP43 CD2CD3 deletion construct; source: E. coli Rosetta2 pLysS, purified (as His6-Trx fusion with a cleavable TEV site; Superdex75)
T1 sequence (looked up): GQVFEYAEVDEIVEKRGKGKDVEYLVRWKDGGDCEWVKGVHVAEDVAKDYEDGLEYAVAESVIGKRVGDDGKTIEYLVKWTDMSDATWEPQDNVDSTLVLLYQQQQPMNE

[2] = molecular target: T2, A3CT (Alb3 C-terminal tail) produced as His6-Trx fusion for NMR (UniProt Q8LBP4 363-462, 15N,13C labelled where it is the observed partner in NMR); assay: NMR titration; 1H,15N HSQC chemical shift perturbations of the labelled partner on stepwise addition of the unlabelled ligand, 298 K, 20 mM Na-phosphate (pH 6.5), 150 mM NaCl
T2 construct: Alb3 insertase C-terminal tail; the A3CT constructs encode residues 363-462; this one is used for all NMR rows; also called Trx–A3CT
T2 sequence (looked up): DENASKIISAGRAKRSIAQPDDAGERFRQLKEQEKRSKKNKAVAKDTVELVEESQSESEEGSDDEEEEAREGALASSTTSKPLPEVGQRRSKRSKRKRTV

[3] = molecular target: T3, full-length cpSRP43 (UniProt O22265 57-373); assay: ITC; VP-ITC, 20 °C, 20 mM Hepes (pH 7.5), 150 mM NaCl, 5 mM MgCl2, 0.25 mM TCEP; 0.01–0.1 mM in the cell, 0.1–1.0 mM in the syringe; duplicate or triplicate
T3 construct: cpSRP43, the 43-kDa subunit of the chloroplast signal recognition particle (CD1, Ank1-4, CD2, CD3); called full-length in the results; the chloroplast transit peptide may be absent from the recombinant protein (surmise); also called cpSRP43 wild-type; source: E. coli Rosetta (DE3) pLysS, purified (HisTrap, size-exclusion chromatography)

[4] = molecular target: T1, cpSRP43 CD2CD3; assay: SAXS; CD2CD3 alone and with 7 × molar excess of A3CT IV, 298 K

B2: cpSRP43 CD3 (domain or fragment, UniProt O22265 316-373, looked up)
chain: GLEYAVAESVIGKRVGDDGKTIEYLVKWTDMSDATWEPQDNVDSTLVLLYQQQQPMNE
notes: Gly316 is the N-terminal residue in the CD3 constructs; also called CD3 only; cpSRP43 CD3 deletion construct; source: E. coli Rosetta2 pLysS, purified (as His6-Trx fusion with a cleavable TEV site; Superdex75); not shown: His6, N-terminal, cleaved; thioredoxin (Trx), N-terminal, cleaved
binding result [2]: binds

B3: A3CT motif II peptide (peptide)
chain: IISAGRAKRSI
modifications: The exact ends of the peptide are not printed. 369-379 is the region the text gives as including motif II, so the assayed peptide may be longer. Terminal chemistry is not stated.
Kd [3]: 150 µM

More lines, now with the values ahead:

binding result [1]: binds
B1: A3CT IV (residues 440–461) as joined to CD2CD3 in the fusion construct (peptide, UniProt Q8LBP4 440-461, looked up)
peptide: TTSKPLPEVGQRRSKRSKRKRT
notes: Alb3 C-terminal tail motif IV, residues 440-461; residues 453-461 are ordered in the structure, 454-KRSKRKR-460 is threaded into CD3; Stood on one chain with CD2CD3 through a (GS)3 linker; also called A3CT motif IV; motif IV; source: E. coli Rosetta2 (DE3) pLysS, purified as part of His6–Trx–CD2CD3–IV

binding result [4]: binds
B4: A3CT IV peptide (peptide, UniProt Q8LBP4 434-461, looked up)
peptide: GALASSTTSKPLPEVGQRRSKRSKRKRT
modifications: also: 15N,13C labelled where it is the observed NMR partner
notes: Alb3 C-terminal 28 residues including motif IV, residues 434-461 (holds 454-KRSKRKR-460); The ITC methods also say that peptides were purchased from PSL; also called A3CT motif IV; motif IV; source: E. coli BL21, purified (His6-GST fusion, TEV cleavage, HisTrap, Superdex75); not shown: His6, N-terminal, cleaved; GST, N-terminal, cleaved
